To fix the notation:
B1: 2D6-002 (antibody, IgG4, V domains shown)
VH: QVELVQSGAEVKKPGSSVKVSCKASGGTFPSYDINWVRQAPGQGLEWMGWIYPRDGSPKYNEKFKGRVTITADESTSTAYMELSSLRSEDTAVYYCARSVYYGTQFAYWGQGTLVTVSS
VL: DIVMTQSPSSLAVSLGERVTMSCKSSQSLLNSRTRKNYLAWYQQKPGQPPKLLIYWASTRDSGVPDRFSGSGSGTDFTLTISSLQAEDVAVYYCKQSFNLVTFGGGTKLEIK
notes: also called VH1/VL2
B2: 2D6-003 (antibody, IgG4, V domains shown)
VH: B1 VH
VL: DIQMTQSPSSLSASVGDRVTITCKSSQSLLNSRTRKNYLAWYQQKPGKAPKLLIYWASTRDSGVPSRFSGSGSGTDFTLTISSLQPEDFATYYCKQSFNLVTFGQGTKVEIK
notes: also called VH1/VL3
B3: 2D6-001 (antibody, IgG4, V domains shown)
VH: B1 VH
VL: B2 VL with Q3V, M4L, I21M, T22S, F89I, Q105G, V109L
notes: also called VH1/VL1
B4: 2D6-014 (antibody, IgG4, V domains shown)
VH: QVQLVESGGGLVQPGGSLRLSCAASGYTFPSYDINWVRQAPGKGLEWVGWIYPRDGSPKYNEKFKGRFTISADTSKNTAYLQMNSLRAEDTAVYYCARSVYYGTQFAYWGQGTLVTVSS
VL: B1 VL
notes: also called VH4/VL2
B5: 2D6-010 (antibody, IgG4, V domains shown)
VH: B4 VH with P30T
VL: B1 VL
notes: also called VH3/VL2
B6: 2D6-004 (antibody, IgG4, V domains shown)
VH: B1 VH
VL: B2 VL with Q3V, S66D
notes: also called VH1/VL4
B7: 2D6-013 (antibody, IgG4, V domains shown)
VH: B4 VH
VL: B2 VL with Q3V, M4L, I21M, T22S, F89I, Q105G, V109L
notes: also called VH4/VL1
B8: 2D6-046 (bispecific antibody, part only; not given: linkers and anti-TAA IgG1 chains, V domains shown, not shown: another chain or arm of the molecule; large carriers; small tags and cut ends)
VH: B1 VH with A9P, G27Y, A40R, E74T, S84H, S119A
VL: B1 VL with M4L, K95Q
B9: 2D6-036 (bispecific antibody, part only; not given: linkers and anti-TAA IgG1 chains, V domains shown, not shown: another chain or arm of the molecule; large carriers; small tags and cut ends)
VH: B1 VH with A9P, G27Y, A40R, Y52I, E74T, S84H, S119A
VL: B1 VL with M4L
B10: 2D6-037 (bispecific antibody, part only; not given: linkers and anti-TAA IgG1 chains, V domains shown, not shown: another chain or arm of the molecule; large carriers; small tags and cut ends)
VH: B1 VH with A9P, G27Y, A40R, D55F, E74T, S84H, S119A
VL: B1 VL with M4L
B11: 2D6-000 (antibody, V domains shown)
VH: QVQLQQSGPELVKPGTSVTLSCKASGYTFPSYDINWMKQRPGQGLEWIGWIYPRDGSPKYNEKFKGKATLTVDTSSSTAYMELHSLTSEDSAVYFCARSVYYGTQFAYWGQGTLVTVSA
VL: B1 VL with T5S, L15A, R18K, P49S, S69T, L84V, V89L, G105A, I111L
notes: Constant regions come from the vectors pFUSE-CHIg-hG4 and pFUSE2-CLIg-hk; also called anti-CD47 IgG4 (2D6-000)
B12: 2D6-076 (antibody, IgG1, V domains shown)
VH: B1 VH with A9P, G27Y, A40R, E74T, S84H, S119A
VL: B1 VL with M4L, K95Q
notes: hIgG1 (humanized IgG1); only the variable domains are tied to the construct; also called VH2/VL2.7
B13: 2D6-067 (antibody, IgG1, V domains shown)
VH: B1 VH with A9P, G27Y, A40R, D55F, E74T, S84H, S119A
VL: B1 VL
notes: hIgG1 (humanized IgG1); only the variable domains are tied to the construct; also called VH2.5/VL2
B14: 2D6-005 (antibody, IgG4, V domains shown)
VH: B1 VH with A9P, G27Y, A40R, E74T, S84H, S119A
VL: B2 VL with Q3V, M4L, I21M, T22S, F89I, Q105G, V109L
notes: hIgG4 (humanized IgG4), human kappa constant light chain from vector; only the variable domains are tied to the construct; also called VH2/VL1
B15: 2D6-066 (antibody, IgG1, V domains shown)
VH: B1 VH with A9P, G27Y, A40R, Y52I, E74T, S84H, S119A
VL: B1 VL
notes: hIgG1 (humanized IgG1); only the variable domains are tied to the construct; also called VH2.4/VL2
B16: 2D6-006 (antibody, IgG4, V domains shown)
VH: B1 VH with A9P, G27Y, A40R, E74T, S84H, S119A
VL: B1 VL
notes: also called VH2/VL2
B17: 2D6-009 (antibody, IgG4, V domains shown)
VH: B4 VH with P30T
VL: B2 VL with Q3V, M4L, I21M, T22S, F89I, Q105G, V109L
B18: 2D6-007 (antibody, IgG4, V domains shown)
VH: B1 VH with A9P, G27Y, A40R, E74T, S84H, S119A
VL: B2 VL
notes: also called VH2/VL3
B19: 2D6-008 (antibody, IgG4, V domains shown)
VH: B1 VH with A9P, G27Y, A40R, E74T, S84H, S119A
VL: B2 VL with Q3V, S66D
notes: also called VH2/VL4
B20: 2D6-011 (antibody, IgG4, V domains shown)
VH: B4 VH with P30T
VL: B2 VL
notes: also called VH3/VL3
B21: 2D6-012 (antibody, IgG4, V domains shown)
VH: B4 VH with P30T
VL: B2 VL with Q3V, S66D
notes: also called VH3/VL4

Positions count from the first letter of the chain named.

Sequence of recombinant C-terminally His-tagged human CD47 (extracellular domain) (human) (Q08722 19-141): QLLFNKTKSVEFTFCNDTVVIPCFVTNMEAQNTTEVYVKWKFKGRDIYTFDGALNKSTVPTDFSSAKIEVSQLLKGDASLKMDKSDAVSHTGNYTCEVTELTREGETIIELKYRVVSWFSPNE

For one test, the target named is T1, human CD47 on cells (human, UniProt Q08722 19-323).
T1 construct: also called CD47 on Molm-13, OVCAR-3, Suit-2 MSLN, HL-60 cells, red blood cells and CD47-transfected CHO cells
T1 sequence (Q08722 19-323): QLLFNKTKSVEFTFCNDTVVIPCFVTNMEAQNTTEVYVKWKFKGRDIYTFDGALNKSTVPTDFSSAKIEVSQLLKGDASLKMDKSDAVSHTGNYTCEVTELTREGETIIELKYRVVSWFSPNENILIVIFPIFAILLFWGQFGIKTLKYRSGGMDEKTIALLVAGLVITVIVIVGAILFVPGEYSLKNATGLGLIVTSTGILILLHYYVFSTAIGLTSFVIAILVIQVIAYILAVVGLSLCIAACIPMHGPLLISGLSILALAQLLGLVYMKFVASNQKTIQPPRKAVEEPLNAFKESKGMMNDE
As to the kind of experiment: flow cytometry on CD47-positive Expi293 cells; MFI of the antibody over MFI of the isotype control. How it is done: (§1) Initially, binding of anti-hCD47 IgG4, anti-hCD47 IgG1 antibodies and Fab domains were measured on CD47-expressing cells by flow cytometry. Cells were stained with 50 nM of antibody followed by staining with a secondary fluorescently labelled anti-human IgG Fc or light-chain antibody, and analyzed by flow cytometry. Binding was measured by calculating the median fluorescence intensity (MFI) ratio, by dividing MFI of the antibody by the MFI of the isotype control.
Regarding B1, the binding result is “no binding (tested: 50 nM (not on the sheet))”.

As to B2, the binding result is reported as “no binding (tested: 50 nM (not on the sheet))”.

B3: the binding result is recorded as “no binding (tested: 50 nM (not on the sheet))”.

Take B4: the binding result is recorded as “no binding (tested: 50 nM (not on the sheet))”.

Turning to B5, the binding result was “no binding (tested: 50 nM (not on the sheet))”.

As for B6, the binding result is “no binding (tested: 50 nM (not on the sheet))”.

With B7, the binding result is reported as “no binding (tested: 50 nM (not on the sheet))”.

A further test has as its target recombinant C-terminally His-tagged human CD47 (extracellular domain) (human) (UniProt Q08722). Put plainly: SPR, Biacore X100; construct captured by anti-human Fc on CM5 chip, human CD47 extracellular domain as analyte, 1:1 fit. In general terms: In SPR one partner is held on a chip, and binding of the other changes the refractive index at the surface.
The term Kd denotes a measure of binding affinity in units of concentration. As for B8, the Kd turned out to be 406 nM.

Turning to B9, the Kd was 1110 nM.

On to B10, for which the Kd amounted to 176 nM.

In a further test the target is T2, recombinant C-terminally His-tagged human CD47 (extracellular domain) (human, UniProt Q08722 19-141).
T2 construct: also called recombinantly expressed human CD47 extracellular domain
T2 sequence (Q08722 19-141): as the sequence (Q08722 19-141) above
Described as above. How it is done:
(§2) Surface Plasmon Resonance (SPR) was used in addition to analyse binding of the different protein constructs to recombinantly expressed CD47 and to determine their affinity. Association (Kₒₙ) and dissociation (Koff) rate constants were determined by SPR using a Biacore™ X-100 (Cytiva). Using the Human antibody capture kit an anti-human Fc antibody was immobilized on a CM5 sensor chip in a covalent manner using the Amine coupling Kit according to manufacturer's instructions. Humanized anti-hCD47 IgGs were injected as ligand to reach a surface coverage of approximately 100 RU-400 RU. Recombinantly expressed human CD47 extracellular domain was used as analyte and injected in increasing concentrations (e. g. from 3.9 to 1000 nM), with standard association time of 120 s and dissociation time of 600 s. Experiments were performed in multi-cycle kinetics runs, with regeneration between sample injection with the respective regeneration buffer (3M MgCl2 for the human antibody capture kit). All reagents were diluted in HBS-EP+ buffer (Cytiva). Data are fit to a simple 1:1 interaction model using the global data analysis option available within BiaEvaluation 2.0.1 software. The dissociation constant (KD) was used as a value for the affinity and was calculated from the ratio between Koff and Kₒₙ.
Regarding B11, the dissociation constant Kd came out at 56.1 nM.

On to B12, for which the Kd stood at 974 nM.

Regarding B13, the Kd came to 219 nM.

For B14, the Kd was 176 nM.

In the case of B15, the Kd worked out at 1320 nM.

Another test concerns the target T1, human CD47 on cells. As to the kind of experiment: flow cytometry on CD47-positive Expi293 cells, 50 nM antibody; MFI of the antibody over MFI of the isotype control. How it is done: as §1
For orientation: In flow cytometry, cells or beads pass a laser one at a time.
Take B14: the MFI ratio is 4.95.

As to B1, the MFI ratio was determined as 1.06.

Take B16: the MFI ratio stood at 3.12.

As to B17, the MFI ratio was found to be 1.58.

In the case of B2, the MFI ratio was 1.06.

As for B18, the MFI ratio came out at 3.92.

Take B19: the MFI ratio turned out to be 3.29.

Take B3: the MFI ratio worked out at 1.15.

Regarding B4, the MFI ratio was determined as 1.03.

With B5, the MFI ratio turned out to be 1.08.

As to B6, the MFI ratio came out at 1.07.

Take B7: the MFI ratio is 1.05.

For B20, the MFI ratio is 4.51.

In the case of B21, the MFI ratio amounted to 4.1.

For a further test, the target named is T2, recombinant C-terminally His-tagged …. Put plainly: SPR, Biacore X100; antibody captured by anti-human Fc on a CM5 chip, CD47 extracellular domain as analyte, 1:1 fit. As for the experimental part: as §2
One may read the koff as the first-order rate constant of dissociation. Broadly, the kon is the rate constant with which the complex forms. With B12, the Kd stood at 970 nM, the koff was 0.48 s⁻¹ and the kon turned out to be 490000 M⁻¹ s⁻¹.

Regarding B13, the Kd worked out at 219 nM, the koff worked out at 0.16 s⁻¹ and the kon stood at 720000 M⁻¹ s⁻¹.

Consider B14, for which the Kd was found to be 170 nM, the koff was found to be 0.13 s⁻¹ and the association rate constant (kon) turned out to be 760000 M⁻¹ s⁻¹.

As to B15, the Kd is 1310 nM, the koff turned out to be 0.32 s⁻¹ and the kon was 250000 M⁻¹ s⁻¹.

The values above are taken from patent US20240336681A1 (LUDWIG MAXIMILIANS UNIVERSIT T M NCHEN, published 2024).
